Reference: PMC7449674

Molecular target: human H3.1/H4 tetramer (ITC sample) (human) (UniProt P68431)
Assay: ITC

- Kd: 7.9 µM
Substance: mouse POLA1 N1 fragment (ITC sample) (from UniProt P33609 1-110) (domain or fragment)
